Assay results reported in patent publication US20080020994.

Test system: purified wild-type Gα13 pre-loaded with GDP
Sequence (chain, as listed by the source): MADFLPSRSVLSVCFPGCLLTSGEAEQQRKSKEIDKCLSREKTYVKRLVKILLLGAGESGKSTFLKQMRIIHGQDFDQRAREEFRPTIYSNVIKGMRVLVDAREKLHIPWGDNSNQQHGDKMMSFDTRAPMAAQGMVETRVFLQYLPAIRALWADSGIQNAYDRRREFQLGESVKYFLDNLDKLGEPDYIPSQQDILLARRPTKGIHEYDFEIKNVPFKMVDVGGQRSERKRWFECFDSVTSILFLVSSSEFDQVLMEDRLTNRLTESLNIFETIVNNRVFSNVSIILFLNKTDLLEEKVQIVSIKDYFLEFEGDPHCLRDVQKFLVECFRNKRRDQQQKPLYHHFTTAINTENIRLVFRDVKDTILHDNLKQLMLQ

purified Rac1(GTPγS)
guanine nucleotide exchange or GTPase activity: No significant changes in these activities were examined
